Patent US20240010741A1 (MAB DISCOVERY, published 2024)
Residue numbers refer to the chain shown, from its start. Names and notes keep the numbering of the source.

B1: CP-870,893 (antibody, V domains shown)
VH: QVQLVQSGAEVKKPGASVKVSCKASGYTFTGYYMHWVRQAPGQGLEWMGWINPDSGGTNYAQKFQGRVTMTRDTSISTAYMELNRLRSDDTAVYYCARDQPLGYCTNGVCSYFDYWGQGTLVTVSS
VL: DIQMTQSPSSVSASVGDRVTITCRASQGIYSWLAWYQQKPGKAPNLLIYTASTLQSGVPSRFSGSGSGTDFTLTISSLQPEDFATYYCQQANIFPLTFGGGTKVEIKR
B2: MAB-16-0484 (antibody, V domains shown)
VH: EVQLEESGGGLVQPGGSLRLSCAASGIDFSRYYYICWVRQAPGKGPEWVACFANGDGSTYYASWAKGRFTISKDTSKTTLYLQMNSLRAEDTATYFCARGADYSGGAAAFNLWGQGTLVTVSS
VL: DIQMTQSPSSLSASVGDRVTITCQASQSISSRLAWYQQKPGQAPKLLIYRASTLASGVPSRFSGSGSGTDFTLTISSLQPEDFATYYCQDYYGSSTEYNAFGQGTKVVIK
notes: humanized anti-CD40 IgG1-LALA antibody of the invention
B3: MAB-16-0267 (antibody, V domains shown)
VH: EVQLEESGGDLVQPGASLRLSCAASGFDFNSNAMSWVRQAPGKGLEWVASIYAGGSGSTYYASWAKGRFTISKDTSKTTLYLQMNSLRAEDTATYFCARGITRLPLWGQGTLVTVSS
VL: B2 VL with R32Y, R50D, T53K, D90G, Y91T, G93Y, S94G, E97T, Y98I, N99S
notes: as for B2
B4: MAB-16-0406 (antibody, V domains shown)
VH: B2 VH with I35M, F52Y, A53S, G105A
VL: B2 VL with Q27E, S30G, S31N, R32A, A34V, T53I, A100T
notes: as for B2
B5: MAB-16-0346 (antibody, V domains shown)
VH: EVQLEESGGGLVQPGGSLRLSCAASGFDFSTNAVSWVRQAPGKGLEWVGSISAGSSGSTYYASWAKGRFTISKDTSKTTLYLQMNSLRAEDTATYFCARGYTYLTLWGQGTLVTVSS
VL: DIVMTQSPSSLSASVGDRVTITCQASHSISSTYLSWYQQKPGQAPKLLIYRASTLASGVPSRFSGSGSGTDFTLTISSLQPEDFATYYCQYTDYGSSYVSTFGQGTKVVIK
notes: as for B2
B6: MAB-16-0464 (antibody, V domains shown)
VH: B5 VH with T31S, V34M, S50T, S52Y, S56N, S58N, Y60D, Y101A, T102S, L104F
VL: DIVMTQSPSSLSASVGDRVTITCQASESVVSNNRLAWYQQKPGQAPKLLIYLASTLPSGVPSRFSGSGSGTDFTLTISSLQPEDFATYYCAGYKSSSTDGTAFGQGTKVVIK
notes: Humanized IgG1-LALA (L234A, L235A in the human IgG1 Fc, EU numbering)
B7: MAB-16-0262 (antibody, V domains shown)
VH: EVQLEESGGGLVQPGGSLRLSCAASGFDFSTNAMCWVRQAPGKGLEWVACIAAGSSIITYYASWAKGRFTISKDTSKTTLYLQMNSLRAEDTAVYFCARGLSRFALWGQGTLVTVSS
VL: DIVMTQSPSSLSASVGDRVTITCQASQSISSYLSWYQQKPGQAPKLLIYLTSTLASGVPSRFSGSGSGTDFTLTISSLQPEDFATYYCQGYYSSSSYVSNGFGQGTKVVIK
notes: as for B6
B8: MAB-16-0451 (antibody, V domains shown)
VH: B7 VH with T31S, A33T, A52Y, I57G, I58S, T75I, V94T, A105S
VL: DIVMTQSPSSLSASVGDRVTITCQASQSISNYLAWYQQKPGQAPKLLIYDASKLASGVPSRFSGSGSGTDFTLTISSLQPEDFATYYCQGGDYYGSSYVVAFGGGTKVVIK
notes: as for B6
B9: MAB-16-0400 (antibody, V domains shown)
VH: EVQLEESGGGLVQPGGSLRLSCAASGIDFSRYFYMCWVRQAPGKGLEWVACIGPGVSGDTYYASWAKGRFTISGDTSKTTLYLQMNSLRAEDTATYFCARGVDYTYGDAGAAFNLWGQGTLVTVSS
VL: DIVMTQSPSSLSASVGDRVTITCQASQSISSYLAWYQQKPGQAPKLLIYRASILASGVPSRFSGSGSGTDFTLTISSLQPEDFATYYCQTYYSSRTYSYGSPNAFGQGTKVVIK
notes: as for B2
B10: MAB-16-0489 (antibody, V domains shown)
VH: EVQLEESGGGLVQPGASLRLSCAASGIDFSRYFYVCWVRQAPGKGLEWVGCFANHDDSIYYAGWMNGRFTISKDTSKTTLYLQMNSLRAEDTATYFCARGVDYTVGYGGAAFNLWGQGTLVTVSS
VL: DIVMTQSPSSLSASVGDRVTITCQASQSIGSYLSWYQQKPGQAPKLLIYRATTLASGVPSRFSGSGSGTDFTLTISSLQPEDFATYYCQSYYRDSSSSAFGQGTKVVIK
notes: as for B2
B11: CD40L containing a mouse-IgG2a Fc-tag (AB Biosciences) (Fc fusion, UniProt P29965 113-261, looked up)
chain: MQKGDQNPQIAAHVISEASSKTTSVLQWAEKGYYTMSNNLVTLENGKQLTVKRQGLYYIYAQVTFCSNREASSQAPFIASLCLKSPGRFERILLRAANTHSSAKPCGQQSIHLGGVFELQPGASVFVNVTDPSQVSHGTGFTSFGLLKL
notes: not shown: mouse IgG2a Fc tag

Each binder was assayed against T1, Recombinant cyno-CD40 protein (Acro Biosystems) (cynomolgus monkey (Macaca fascicularis), UniProt G7PG38 21-193) (assay: ELISA on coated recombinant cynomolgus monkey CD40).
T1 construct: also called cynomolgus monkey-CD40 protein; recombinant cynomolgus monkey CD40 recombinant protein
Experimental: Binding of humanized anti-CD40 IgG1-LALA monoclonal antibodies to cynomolgus monkey-CD40 protein was tested in a biochemical ELISA. Recombinant cyno-CD40 protein (Acro Biosystems) was incubated in a 384-well Nunc™ MaxiSorp™ plate at a concentration of 0.5 μg/ml in PBS for one hour at room temperature. After washing three times with wash buffer (PBS, 0.1% Tween), plates were blocked with PBS, 2% BSA, 0.05% Tween for one hour at room temperature. Plates were washed again three time with wash buffer and antibodies at concentrations ranging from 500 to 0.03 ng/ml in PBS, 0.5% BSA, 0.05% Tween were incubated for one hour at room temperature. After 3 washes in wash buffer, wells were incubated with 12.5 μl of a 1:3000 dilution of anti-human peroxidase-linked, species specific F(ab) 2 Fragment from goat (AbD Serotec) in ELISA buffer for one hour at room temperature. Wells were washed six times with wash buffer and 15 μl/well TMB substrate solution (Invitrogen) were added. After 10 minutes at room temperature 15 μl Stop solution (1M HCl) were added per well and absorbance at 450 and 620 nm wavelength was measured using a Tecan M1000 microplate reader. Fitting curves and EC50 calculation were obtained by using Excel (Microsoft) and XLfit (IDBS).
An EC50 of 8 ng/mL was found for B1 in this work. An EC50 of 31.8 ng/mL was found for B2 in this work. An EC50 of 7 ng/mL was found for B3 in this work. An EC50 of 11.1 ng/mL was found for B4 in this work. An EC50 of 8.2 ng/mL was found for B5 in this work. An EC50 of 8 ng/mL was found for B6 in this work. An EC50 of 11.9 ng/mL was found for B7 in this work. An EC50 of 10.4 ng/mL was found for B8 in this work.

These binders were tested against soluble human CD40 monomeric protein (Acro Biosystems) (human, UniProt P25942 21-193) (assay: SPR Biacore T200, antibody captured via anti-human Fc, soluble CD40 as analyte, 1:1 model).
soluble human CD40 monomeric protein (Acro Biosystems), sequence (P25942 21-193 limits assumed): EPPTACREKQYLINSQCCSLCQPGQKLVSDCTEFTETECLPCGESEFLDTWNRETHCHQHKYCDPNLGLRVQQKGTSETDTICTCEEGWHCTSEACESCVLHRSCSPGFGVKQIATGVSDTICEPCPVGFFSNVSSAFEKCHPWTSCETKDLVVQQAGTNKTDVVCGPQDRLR
Experimental: (§1) a. The biochemical affinities of the antibodies of the invention was determined by surface plasmon resonance measurements. Antibodies were reversibly immobilized to a CM5 sensor chip surface via an anti-human Fc antibody. The kinetics of the interaction of immobilized antibodies with soluble human or cynomolgus monkey CD40 monomeric protein (Acro Biosystems) were analysed on a Biacore T200 SPR instrument. Kinetic data were determined using a Langmuir 1:1 binding model.
(§2) Biochemical affinities were measured by surface plasmon resonance on a Biacore T200 SPR instrument. Kinetic data were determined using a Langmuir 1:1 binding model.
A Kd of 8.9 nM was found for B1 in this work. A Kd of 2.6 nM was found for B6 in this work. A Kd of 15.7 nM was found for B7 in this work. A Kd of 1.2 nM was found for B8 in this work.

What follows are binders tested against T2, cell-expressed CD40 (UniProt P25942 21-277, limits assumed) (assay: cell binding on HEK-Blue-CD40L cells, Alexa-Fluor-488 anti-human IgG, high content imaging).
T2 construct: whole, on cells; also called CD40 on HEK-Blue-CD40L cells; cell surface CD40
T2 sequence (P25942 21-277 limits assumed): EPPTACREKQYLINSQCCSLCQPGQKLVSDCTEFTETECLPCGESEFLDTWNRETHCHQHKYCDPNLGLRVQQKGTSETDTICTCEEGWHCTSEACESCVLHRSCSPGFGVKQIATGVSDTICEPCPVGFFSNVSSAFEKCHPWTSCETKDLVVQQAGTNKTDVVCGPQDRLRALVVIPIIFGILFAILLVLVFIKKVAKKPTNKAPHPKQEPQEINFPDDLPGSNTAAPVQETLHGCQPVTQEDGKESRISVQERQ
Experimental: Antibodies were added to final concentrations ranging from 1.25 μg/ml to 0.01 ng/ml in 5 μl medium. After 24h cells were washed three times with 25 μl wash buffer (PBS, 0.05% Tween) before Alexa-Fluor-488-conjugated goat anti-human-IgG (Jackson Laboratories) was added at a concentration of 0.8 μg/ml in 20 μl medium. Four hours later, 5 μl Hoechst dye in medium was added to a final concentration of 51.1 µg/ml. Fluorescent cell binding signals were measured using a CellInsight automated high content imager (Thermo Fisher Scientific). Fitting curves and EC50 calculation were obtained by using Excel (Microsoft) and XLfit (IDBS).
An EC50 of 5.8 ng/mL was found for B9 in this work. An EC50 of 21.9 ng/mL was found for B2 in this work. An EC50 of 3.4 ng/mL was found for B3 in this work. An EC50 of 6.6 ng/mL was found for B4 in this work. An EC50 of 49.5 ng/mL was found for B5 in this work. An EC50 of 3 ng/mL was found for B6 in this work. An EC50 of 3.2 ng/mL was found for B10 in this work. An EC50 of 6.3 ng/mL was found for B7 in this work. An EC50 of 8.9 ng/mL was found for B8 in this work.

The binders below were run against T3, soluble cynomolgus monkey CD40 monomeric protein (Acro Biosystems) (cynomolgus monkey, UniProt G7PG38 21-193) (assay: SPR (Biacore T200), antibody captured via anti-human Fc on CM5 chip, soluble cynomolgus CD40 as analyte, Langmuir 1:1 model).
T3 construct: May be the same reagent as m11; also called cynomolgus monkey CD40 protein
Experimental: as §1, §2
A Kd of 2.2 nM was found for B6 in this work. A Kd of 10.3 nM was found for B7 in this work. A Kd of 0.8 nM was found for B8 in this work.

The binders below were run against T2, cell-expressed CD40 (assay: flow cytometry on HEK-Blue-CD40L cells preincubated with isotype control IgG1-LALA, CD40L-mouse IgG2a Fc titrated, DyLight 405 anti-mouse IgG [Detection of CD40L binding]).
Experimental: (§3) a. Binding of anti CD40 antibodies of the invention to HEK-Blue-CD40L™ cells in the presence of CD40L was tested to verify whether the antibodies bind to the CD40L binding site of cell surface CD40. […] CD40L containing a mouse-IgG2a Fc-tag (AB Biosciences) was added at concentration ranging from 10000 to 9.8 ng/ml and cells were incubated for 60 minutes at 4° C. Anti-CD40 antibodies and CD40L bound to cell-expressed CD40 were detected using secondary DyLight 405-conjugated anti-mouse IgG and Alexa Fluor 488-conjugated anti-human IgG (Jackson Laboratories) and analyzed using FACSVerse instrument (BD).
With B11 the “EC50 (read off the curve)” value was about 200 ng/mL.

These binders were tested against T2, cell-expressed CD40 (assay: flow cytometry on HEK-Blue-CD40L cells preincubated with CP870,893 IgG1-LALA at EC90, CD40L-mouse IgG2a Fc titrated, DyLight 405 anti-mouse IgG [Detection of CD40L binding]).
Experimental: as §3
B11 was tested, and the “EC50 (read off the curve)” value was about 400 ng/mL.

The binders below were run against T4, recombinant CD40 protein (UniProt P25942 21-193, limits assumed) (assay: CD40L competition ELISA: antibody (5 µg/ml) preincubated with recombinant CD40 (1.7 µg/ml), complex added to coated CD40L, detected with anti-human F(ab)2-peroxidase; a low signal means competition with CD40L).
T4 construct: Construct not described; also called CD40 recombinant protein
T4 sequence (P25942 21-193 limits assumed): as the sequence (P25942 21-193 limits assumed) above
Experimental: Competition of humanized anti-CD40 IgG1-LALA monoclonal antibodies with CD40L binding to CD40 was tested using an ELISA assay. CD40L was coated to the surface of a 384-well Nunc™ MaxiSorp™ plate in a volume of 25 μl PBS and at a concentration of 1 μg/ml for one hour at room temperature. Antibodies were pre-incubated at a concentration of 5 μg/ml with recombinant CD40 protein at a concentration of 1.7 μg/ml in a total volume of 40 μl for 1.5 hours at room temperature in ELISA buffer (PBS, 0.5% BSA, 0.05% Tween). The Nunc™ MaxiSorp™ plate was washed three times with wash buffer (PBS, 0.1% Tween) and blocked for one hour at room temperature with PBS, 2% BSA, 0.05% Tween. After three washes in wash buffer, 25 μl of the antibody-CD40 complex were added to the Nunc™ MaxiSorp™ plate wells and incubated for one hour at room temperature. After 3 washes in wash buffer, wells were incubated with 25 μl of a 1:2000 dilution of anti-human peroxidase-linked, species specific F(ab) 2 Fragment from goat (AbD Serotec) in ELISA buffer for one hour at room temperature. Wells were washed six times with wash buffer and 30 μl/well TMB substrate solution (Invitrogen) were added. After 10 minutes at room temperature, 30 μl Stop solution (1M HCl) was added per well and absorbance at 450 and 620 nm wavelength was measured using a Tecan M1000 microplate reader.
B9 was tested, and the “OD at 450 nm” value was 0.08 OD. For B2, the “OD at 450 nm” value was 0.07 OD. In the case of B3, the “OD at 450 nm” value is reported as 0.1 OD. For B4, the “OD at 450 nm” value was 0.07 OD. B5 was tested, and the “OD at 450 nm” value was 0.09 OD. In the case of B6, the “OD at 450 nm” value is reported as 0.09 OD. B10 was tested, and the “OD at 450 nm” value was 0.01 OD. For B7, the “OD at 450 nm” value was 0.11 OD. For B8, the “OD at 450 nm” value was 0.13 OD.
